According to US6339070B1, “Gene construct encoding a heterologous prodrug-activating enzyme and a cell targeting moiety” (Zeneca Limited, priority 1997, dated 2002):

Assays:
[1] = molecular target: T1, human carcinoembryonic antigen (CEA) (Homo sapiens, UniProt P06731); test: CEA-binding ELISA, anti-CPG2 reporter antibody; conditions: COS-7 transient expression supernatant
T1 sequence (P06731 35-676): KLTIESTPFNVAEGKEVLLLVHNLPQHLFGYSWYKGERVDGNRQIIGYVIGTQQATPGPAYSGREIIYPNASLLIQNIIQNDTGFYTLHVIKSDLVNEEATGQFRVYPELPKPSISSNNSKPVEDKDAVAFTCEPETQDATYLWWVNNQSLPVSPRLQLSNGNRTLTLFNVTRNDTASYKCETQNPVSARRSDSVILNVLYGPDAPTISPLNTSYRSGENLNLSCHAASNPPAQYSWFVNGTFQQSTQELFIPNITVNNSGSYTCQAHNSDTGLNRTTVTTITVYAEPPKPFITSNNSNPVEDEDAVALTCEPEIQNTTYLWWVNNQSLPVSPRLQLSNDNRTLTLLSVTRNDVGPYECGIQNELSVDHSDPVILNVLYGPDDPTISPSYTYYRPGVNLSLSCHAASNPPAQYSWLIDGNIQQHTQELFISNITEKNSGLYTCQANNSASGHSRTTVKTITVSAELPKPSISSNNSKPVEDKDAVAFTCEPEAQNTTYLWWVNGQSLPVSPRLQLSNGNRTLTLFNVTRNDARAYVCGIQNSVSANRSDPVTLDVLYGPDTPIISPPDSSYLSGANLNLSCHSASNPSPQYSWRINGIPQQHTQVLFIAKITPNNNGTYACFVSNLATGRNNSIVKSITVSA
Description: The CEA ELISA using an anti CPG2 reporter antibody was essentially as above but instead of HRPO-labelled goat anti-human kappa antibody an 1/1000 dil. of a rabbit anti-CPG2 polyclonal sera was added, in 1% BSA in PBS-TWEEN™ and incubated at room temperature on a rocking platform for at 2 hours. The plate was washed three times with PBS-TWEEN™. A 1/2000 dilution of a goat anti-rabbit HRPO labelled antibody (Sigma A-6154) was then added and incubated at room temperature on a rocking platform for 1 hour, the plate was washed three times with PBS-TWEEN™ and once with PBS. To detect binding add 100 μl per well developing solution (one capsule of phosphate-citrate buffer—Sigma P4922—dissolved in 100 ml H2O to which is added one 30 mg tablet o-phenylenediamine dihydrochloride—Sigma P8412) and incubated for up to 15 minutes. The reaction was stopped by adding 75 μl 2M H2SO4, and absorbance read at 490 nm.

[2] = test system: LoVo, CEA bearing, tumour cells; test: In vitro cell killing assay: cell-bound fusion protein plus PGP prodrug, SRB stain; format: cell-based; conditions: unbound protein washed off, PGP 1 hr, 4 days proliferation
Description: An in vitro cell killing assay was performed in which the (A5B7-CPG2 R6)2 fusion protein was compared to a “conventional” A5B7 F(ab′)2-CPG2 conjugate formed through linking A5B7 F(ab′)2 to CPG2 with a chemical heterobifunctional reagent. […] The cells were then washed to remove unbound protein material and subsequently resuspended in medium containing a CPG2 phenol prodrug (PGP, see Example 2 below) for a period of 1 hr, after which the cells were washed, resuspended in fresh media and left to proliferate for 4 days. Finally the cells were treated with SRB stain and their numbers determined.

[3] = Enzyme activity in tumour xenograft samples (methotrexate turnover, HPLC); format: in vivo, athymic nude mice; conditions: 20% recombinant: 80% parental LoVo tumours
Description: Recombinant LoVo fusion protein (A5B7-CPG2)2 expressing tumour cells or mixes of recombinant and parental LoVo cells were injected subcutaneously into athymic nude mice (10^7 tumour cells per mouse). The tumour growth rates for both 100% recombinant and 20%: 80% mixes of recombinant:parental LoVo cells were compared to those of parental cell only tumours.
To act as a standard for the assay, a CPG2 enzyme standard curve was prepared in 20% homogenate of normal tumour (parental cell tumour). Subsequent dilutions of samples were made in the same 20% homogenate of normal tumour.
Excised tumour tissue is removed from −80° storage (previously flash frozen in liquid nitrogen) and allowed to thaw. Any residual skin tissue was removed before the tumour was cut up in to small fragments with a scalpel. The tumour tissue was transferred to a preweighed tube and the weight of tumour tissue measured. PBS containing 0.2 mM ZnCl2 solution was added to each tumour sample to give a 20% (w/v) mix, homogenised and placed on ice. Dilutions of sample tumours (in 20% normal tumour homogenate) were prepared e.g. neat, 1/10, 1/20 and 1/40.
For the standard curve, dilutions of CPG2 enzyme were made to the following concentrations to a final volume of 400 μl. Similarly, 400 μl of each of the recombinant tumour sample dilutions were also prepared. After equilibration to 30°, 4 μl of 10 mM methotrexate (MTX) solution was added. The reaction was stopped after exactly 10 minutes by adding 600 μl ice cold methanol+0.2% TFA, centrifuged and the supematant collected. The substrate and product in the supernatant were then separated by HPLC (using a Cation Exchange Column, HICROM™ S5SCX-100 A, mobile phase=60% methanol, 40% 60 mM ammonium formate/0.1% TFA, detection 300 nm). To calculate enzyme activity in the tumour tissue, the standard curve was plotted as units of area of methotrexate metabolite (the standards are such that only 20-30% of the substrate is metabolised so ensuring this is not rate limiting). The test samples were analysed by comparing the unit area of metabolite against the standard curve and then multiplying by the dilution factor. Finally, making the working assumption that 1 ml=1 g the results were multiplied by 5 (as the samples were originally diluted to a 20% homogenate).

CPG2 = conditions: COS-7 transient expression supernatant

B1: (A5B7 Fab-CPG2)2 fusion protein: chimaeric A5B7 anti-CEA Fab, heavy chain Fd linked via (G4S)3 linker to CPG2 R6, dimerised through CPG2 (antibody)
heavy: EVKLVESGGGLVQPGGSLRLSCATSGFTFTDYYMNWVRQPPGKALEWLGFIGNKANGYTTEYSASVKGRFTISRDKSQSILYLQMNTLRAEDSATYYCTRDRGLRFYFDYWGQGTTLTVSSASTKGPSVFPLAPCSRSTSESTAALGCLVKDYFPEPVTVSWNSGALTSGVHTFPAVLQSSGLYSLSSVVTVPSSNFGTQTYTCNVDHKPSNTKVDKTVGGGGSGGGGSGGGGSQKRDNVLFQAATDEQPAVIKTLEKLVNIETGTGDAEGIAAAGNFLEAELKNLGFTVTRSKSAGLVVGDNIVGKIKGRGGKNLLLMSHMDTVYLKGILAKAPFRVEGDKAYGPGIADDKGGNAVILHTLKLLKEYGVRDYGTITVLFNTDEEKGSFGSRDLIQEEAKLADYVLSFEPTSAGDEKLSLGTSGIAYVQVQITGKASHAGAAPELGVNALVEASDLVLRTMNIDDKAKNLRFQWTIAKAGQVSNIIPASATLNADVRYARNEDFDAAMKTLEERAQQKKLPEADVKVIVTRGRPAFNAGEGGKKLVDKAVAYYKEAGGTLGVEERTGGGTDAAYAALSGKPVIESLGLPGFGYHSDKAEYVDISAIPRRLYMAARLIMDLGAGK
light: QTVLSQSPAILSASPGEKVTMTCRASSSVTYIHWYQQKPGSSPKSWIYATSNLASGVPARFSGSGSGTSYSLTISRVEAEDAATYYCQHWSSKPPTFGGGTKLEIKRTVAAPSVFIFPPSDEQLKSGTASVVCLLNNFYPREAKVQWKVDNALQSGNSQESVTEQDSKDSTYSLSSTLTLSKADYEKHKVYACEVTHQGLSSPVTKSFNRGEC
- CEA binding detected with anti-CPG2 reporter antibody [1]: exhibited clear CEA binding
- cell kill with PGP prodrug compared with equivalent levels of A5B7 F(ab)2-CPG2 conjugate [2]: at least equivalent cell kill
- average enzyme activity in tumour ([3]; day 5): 0.26 U/g
- range of enzyme activity in tumour ([3]; day 5): 0.18-0.36 U/g
- average enzyme activity in tumour ([3]; day 12): 0.65 U/g
- range of enzyme activity in tumour ([3]; day 12): 0.19-1.1 U/g
- CPG2 enzyme activity in cell supernatant (CPG2): CPG2 enzyme activity to be present in the cell supernatant
